Measured values from patent publication US20190142971A1, “FORMULATION AND DELIVERY OF MODIFIED NUCLEOSIDE, NUCLEOTIDE, AND NUCLEIC ACID COMPOSITIONS” (ModernaTX, Inc., priority 2013, published 2019).

Experiments:
Type in all cases: in vivo
BALB/C mice = assay: Example 59: G-CSF mRNA IM in mice, serum human G-CSF and mouse IFN-alpha ELISA (Table 93)
mice [1] = assay: Example 18: time course LNP IV in mice, serum EPO/G-CSF ELISA (Table 35); details: for EPO / G-CSF Serum Concentration: mice, LNP IV
Method: (§1) Formulations, listed in Table 33, were characterized by particle size, zeta potential, and encapsulation.
LNP formulations, shown in Table 33 (above), were administered to mice (n=5) intravenously (IV) at a single modified mRNA dose of 0.5, 0.05 or 0.005 mg/kg. The mice were bled at 8 hours, 24 hours, 72 hours and 6 days after they were administered with G-CSF or EPO modified mRNA formulations to determine protein expression using ELISA.

[2] = system: non-human primates (cynomolgus monkey); assay: Example 22: NHP serum chemistry ALT and AST (Tables 45, 46)
mice [3] = assay: Example 19A: LNP IV in mice, serum EPO/G-CSF ELISA (Table 36)
Method: as §1
LNP formulations, shown in Table 33 (above), were administered to mice (n=4) intravenously (IV) at a single modified mRNA dose 0.05 mg/kg or 0.005 mg/kg. There was also 3 control groups of mice (n=4) that were untreated. The mice were bled at 2 hours, 8 hours, 24 hours, 48 hours and 72 hours after they were administered with G-CSF or EPO modified mRNA formulations to determine the protein expression. Protein expression of G-CSF and EPO were determined using ELISA.

[4] = I.M., 200 ug/mouse (R848 75 ug/mouse), 50 ul, 8 hours after dosing
[5] = 0.005 mg/kg, 2 days, Female NHP
[6] = 0.005 mg/kg, 4 days, Female NHP
[7] = 0.005 mg/kg, 7 days, Female NHP
[8] = 0.005 mg/kg, 14 days, Female NHP
[9] = 0.005 mg/kg, Pre-dose, Female NHP
[10] = 0.005 mg/kg, Pre-dose, Male NHP
[11] = 0.05 mg/kg, 14 days, Female NHP
[12] = 0.05 mg/kg, Pre-dose, Female NHP
[13] = 0.5 mg/kg, Pre-dose, Female NHP

B1: G-CSF: modified mRNA encoding human G-CSF, SEQ ID NO: 4, Cap1, fully modified with 5-methylcytosine and pseudouridine; LNP-formulated in Examples 16-22 (nucleic acid)
chain: GGGAAAUAAGAGAGAAAAGAAGAGUAAGAAGAAAUAUAAGAGCCACCAUGGCCGGUCCCGCGACCCAAAGCCCCAUGAAACUUAUGGCCCUGCAGUUGCUGCUUUGGCACUCGGCCCUCUGGACAGUCCAAGAAGCGACUCCUCUCGGACCUGCCUCAUCGUUGCCGCAGUCAUUCCUUUUGAAGUGUCUGGAGCAGGUGCGAAAGAUUCAGGGCGAUGGAGCCGCACUCCAAGAGAAGCUCUGCGCGACAUACAAACUUUGCCAUCCCGAGGAGCUCGUACUGCUCGGGCACAGCUUGGGGAUUCCCUGGGCUCCUCUCUCGUCCUGUCCGUCGCAGGCUUUGCAGUUGGCAGGGUGCCUUUCCCAGCUCCACUCCGGUUUGUUCUUGUAUCAGGGACUGCUGCAAGCCCUUGAGGGAAUCUCGCCAGAAUUGGGCCCGACGCUGGACACGUUGCAGCUCGACGUGGCGGAUUUCGCAACAACCAUCUGGCAGCAGAUGGAGGAACUGGGGAUGGCACCCGCGCUGCAGCCCACGCAGGGGGCAAUGCCGGCCUUUGCGUCCGCGUUUCAGCGCAGGGCGGGUGGAGUCCUCGUAGCGAGCCACCUUCAAUCAUUUUUGGAAGUCUCGUACCGGGUGCUGAGACAUCUUGCGCAGCCGUGAAGCGCUGCCUUCUGCGGGGCUUGCCUUCUGGCCAUGCCCUUCUUCUCUCCCUUGCACCUGUACCUCUUGGUCUUUGAAUAAAGCCUGAGUAGGAAG
modifications: Cap1, 5-methylcytosine, pseudouridine
With B1 the “G-CSF protein (human, serum)” value (BALB/C mice; [4]) was 356.5 pg/mL, the “IFN-alpha expression (mouse, serum)” value (BALB/C mice; [4]) was 8.87 pg/mL and the “PC Ratio (Protein: Cytokine Ratio)” value (BALB/C mice; I.M., 200 ug/mouse (R848 75 ug/mouse), 8 hours after dosing) was 40. The “mouse IFN-alpha in the serum (cytokine response)” value (BALB/C mice; IM, 8 hours) was “low but detectable cytokine response”, the “protein expression detectable out to” value (mice [1]; mice IV, 0.005 mg/kg and 0.05 mg/kg) was 72 h and the “EPO / G-CSF Serum Concentration” value (mice [1]; 0.005 mg/kg, 8 hours) was 11,550.6 pg/ml. The “EPO / G-CSF Serum Concentration” value (mice [1]; 0.005 mg/kg, 24 hours) was 5,068.9 pg/ml, the “EPO / G-CSF Serum Concentration” value (mice [1]; 0.05 mg/kg, 8 hours) was 462,312.5 pg/ml and the “EPO / G-CSF Serum Concentration” value (mice [1]; 0.05 mg/kg, 24 hours) was 80,903.8 pg/ml. The “EPO / G-CSF Serum Concentration” value (mice [1]; 0.5 mg/kg, 8 hours) was >1,250,000 pg/ml, the “EPO / G-CSF Serum Concentration” value (mice [1]; 0.5 mg/kg, 24 hours) was 495,812.5 pg/ml and the “EPO / G-CSF Serum Concentration” value (mice [1]; 0.5 mg/kg, 72 hours) was 1,325.6 pg/ml. The ALT [2, 5] was 32 U/L, the AST [2, 5] was 34 U/L and the ALT ([2]; 0.005 mg/kg, 2 days, Male NHP) was 39 U/L. The AST ([2]; 0.005 mg/kg, 2 days, Male NHP) was 70 U/L, the ALT [2, 6] was 58 U/L and the AST [2, 6] was 36 U/L. For the same molecule, the ALT ([2]; 0.005 mg/kg, 4 days, Male NHP) was 48 U/L, the AST ([2]; 0.005 mg/kg, 4 days, Male NHP) was 39 U/L and the ALT [2, 7] was 55 U/L. The AST [2, 7] was 31 U/L, the ALT ([2]; 0.005 mg/kg, 7 days, Male NHP) was 29 U/L and the AST ([2]; 0.005 mg/kg, 7 days, Male NHP) was 28 U/L. The ALT [2, 8] was 46 U/L, the AST [2, 8] was 20 U/L and the ALT ([2]; 0.005 mg/kg, 14 days, Male NHP) was 44 U/L. The AST ([2]; 0.005 mg/kg, 14 days, Male NHP) was 39 U/L, the ALT [2, 9] was 51 U/L and the AST [2, 9] was 54 U/L. It also gave an ALT [2, 10] of 43 U/L, an AST [2, 10] of 35 U/L and an ALT ([2]; 0.05 mg/kg, 2 days, Female NHP) of 39 U/L. The AST ([2]; 0.05 mg/kg, 2 days, Female NHP) was 34 U/L, the ALT ([2]; 0.05 mg/kg, 2 days, Male NHP) was 82 U/L and the AST ([2]; 0.05 mg/kg, 2 days, Male NHP) was 95 U/L. The ALT ([2]; 0.05 mg/kg, 4 days, Female NHP) was 56 U/L, the AST ([2]; 0.05 mg/kg, 4 days, Female NHP) was 42 U/L and the ALT ([2]; 0.05 mg/kg, 4 days, Male NHP) was 88 U/L. The AST ([2]; 0.05 mg/kg, 4 days, Male NHP) was 69 U/L, the ALT ([2]; 0.05 mg/kg, 7 days, Female NHP) was 73 U/L and the AST ([2]; 0.05 mg/kg, 7 days, Female NHP) was 52 U/L. The ALT ([2]; 0.05 mg/kg, 7 days, Male NHP) was 73 U/L, the AST ([2]; 0.05 mg/kg, 7 days, Male NHP) was 62 U/L and the ALT [2, 11] was 31 U/L. It also gave an AST [2, 11] of 20 U/L, an ALT ([2]; 0.05 mg/kg, 14 days, Male NHP) of 50 U/L and an AST ([2]; 0.05 mg/kg, 14 days, Male NHP) of 59 U/L. The ALT [2, 12] was 53 U/L, the AST [2, 12] was 33 U/L and the ALT ([2]; 0.05 mg/kg, Pre-dose, Male NHP) was 58 U/L. It also gave an AST ([2]; 0.05 mg/kg, Pre-dose, Male NHP) of 99 U/L, an ALT ([2]; 0.5 mg/kg, 2 days, Female NHP) of 209 U/L and an AST ([2]; 0.5 mg/kg, 2 days, Female NHP) of 294 U/L. For the same molecule, the ALT ([2]; 0.5 mg/kg, 2 days, Male NHP) was 63 U/L, the AST ([2]; 0.5 mg/kg, 2 days, Male NHP) was 196 U/L and the ALT ([2]; 0.5 mg/kg, 4 days, Female NHP) was 98 U/L. It also gave an AST ([2]; 0.5 mg/kg, 4 days, Female NHP) of 63 U/L, an ALT ([2]; 0.5 mg/kg, 4 days, Male NHP) of 70 U/L and an AST ([2]; 0.5 mg/kg, 4 days, Male NHP) of 67 U/L. The ALT ([2]; 0.5 mg/kg, 7 days, Female NHP) was 149 U/L, the AST ([2]; 0.5 mg/kg, 7 days, Female NHP) was 68 U/L and the ALT ([2]; 0.5 mg/kg, 7 days, Male NHP) was 41 U/L. It also gave an AST ([2]; 0.5 mg/kg, 7 days, Male NHP) of 53 U/L, an ALT ([2]; 0.5 mg/kg, 14 days, Female NHP) of 145 U/L and an AST ([2]; 0.5 mg/kg, 14 days, Female NHP) of 67 U/L. It also gave an ALT ([2]; 0.5 mg/kg, 14 days, Male NHP) of 43 U/L, an AST ([2]; 0.5 mg/kg, 14 days, Male NHP) of 47 U/L and an ALT [2, 13] of 216 U/L. The AST [2, 13] was 47 U/L, the ALT ([2]; 0.5 mg/kg, Pre-dose, Male NHP) was 29 U/L and the AST ([2]; 0.5 mg/kg, Pre-dose, Male NHP) was 32 U/L. The “EPO / G-CSF Serum Concentration” value (mice [3]; 0.005 mg/kg, 2 hours) was 3,447.8 pg/ml, the “EPO / G-CSF Serum Concentration” value (mice [3]; 0.005 mg/kg, 8 hours) was 11,454.0 pg/ml and the “EPO / G-CSF Serum Concentration” value (mice [3]; 0.005 mg/kg, 24 hours) was 4,960.2 pg/ml. The “EPO / G-CSF Serum Concentration” value (mice [3]; 0.005 mg/kg, 48 hours) was 686.4 pg/mL, the “EPO / G-CSF Serum Concentration” value (mice [3]; 0.05 mg/kg, 2 hours) was 20,951.4 pg/ml and the “EPO / G-CSF Serum Concentration” value (mice [3]; 0.05 mg/kg, 8 hours) was 70,012.8 pg/ml. The “EPO / G-CSF Serum Concentration” value (mice [3]; 0.05 mg/kg, 24 hours) was 19,356.2 pg/ml, the “EPO / G-CSF Serum Concentration” value (mice [3]; 0.05 mg/kg, 48 hours) was 1,963.0 pg/ml and the “EPO / G-CSF Serum Concentration” value (mice [3]; 0.05 mg/kg, 72 hours) was 47.3 pg/mL.
